# Measurements taken from the supplement of paper PMC9112550, “Optimization of the antimicrobial peptide Bac7 by deep mutational scanning” (BMC Biology, 2022).
# Tested on: Escherichia coli TOP10
# Test: shrunken log2 fold change of peptide-encoding DNA abundance (4.5 h post-induction vs induction); higher = less antimicrobial activity (less host growth inhibition)
# Conditions: time post-induction: 4.5 h; library: site-saturation at positions 5, 18, 19, 20
# 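Also: peptides expressed intracellularly from a pBAD plasmid library in pooled LB shake-flask culture, induced with 0.3% L-arabinose, DNA abundance read by NGS, three biological replicates, DESeq2 with apeglm shrinkage.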
row,Sequence,shrunken log2 fold change
1,RRIRTRPPRLPRPRPRPLMKPRP,-0.26
2,RRIRSRPPRLPRPRPRPPSNPRP,-0.00786
3,RRIRPRPPRLPRPRPRPKQAPRP,-0.0162
4,RRIRCRPPRLPRPRPRPGVPPRP,-0.3
5,RRIRTRPPRLPRPRPRPEHRPRP,-0.0227
6,RRIRLRPPRLPRPRPRPFGNPRP,-0.498
7,RRIRERPPRLPRPRPRPRKEPRP,-0.0305
8,RRIRCRPPRLPRPRPRPICEPRP,-0.178
9,RRIRTRPPRLPRPRPRPSIVPRP,-0.427
10,RRIRKRPPRLPRPRPRPDQPPRP,-0.018
11,RRIRYRPPRLPRPRPRPILGPRP,-0.00192
12,RRIRKRPPRLPRPRPRPNATPRP,1.16
13,RRIRIRPPRLPRPRPRPLMTPRP,-0.233
14,RRIRDRPPRLPRPRPRPETGPRP,-0.0106
15,RRIRNRPPRLPRPRPRPNGYPRP,-0.0975
16,RRIRTRPPRLPRPRPRPLGFPRP,0.046
17,RRIRERPPRLPRPRPRPSIEPRP,-0.37
18,RRIRNRPPRLPRPRPRPMKDPRP,0.145
19,RRIRCRPPRLPRPRPRPRVDPRP,0.113
20,RRIRHRPPRLPRPRPRPGRLPRP,0.129
21,RRIRCRPPRLPRPRPRPWYIPRP,-0.331
22,RRIRWRPPRLPRPRPRPKYYPRP,-0.84
23,RRIRPRPPRLPRPRPRPLSEPRP,0.126
24,RRIRHRPPRLPRPRPRPELTPRP,0.054
25,RRIRGRPPRLPRPRPRPYVLPRP,-0.114

row,Sequence,shrunken log2 fold change
1,RRIRLRPPRLPRPRPRPYEPPRP,-0.0278
2,RRIRRRPPRLPRPRPRPMAKPRP,0.315
3,RRIRLRPPRLPRPRPRPETTPRP,0.182
4,RRIRLRPPRLPRPRPRPDEQPRP,-0.017
5,RRIRQRPPRLPRPRPRPECLPRP,-0.21
6,RRIRYRPPRLPRPRPRPAPVPRP,0.125
7,RRIRARPPRLPRPRPRPVYVPRP,0.111
8,RRIRARPPRLPRPRPRPHVKPRP,-0.289
9,RRIRCRPPRLPRPRPRPVSTPRP,-0.104
10,RRIRYRPPRLPRPRPRPGDKPRP,-0.288
11,RRIRQRPPRLPRPRPRPPGEPRP,0.119
12,RRIRWRPPRLPRPRPRPVWWPRP,0.729
13,RRIRCRPPRLPRPRPRPRKDPRP,-0.0271
14,RRIRHRPPRLPRPRPRPNGCPRP,-0.0302
15,RRIRCRPPRLPRPRPRPILRPRP,0.103
16,RRIRGRPPRLPRPRPRPWCAPRP,0.407
17,RRIRQRPPRLPRPRPRPSKDPRP,-0.462
18,RRIRVRPPRLPRPRPRPYACPRP,0.0114
19,RRIRMRPPRLPRPRPRPSFWPRP,0.459
20,RRIRERPPRLPRPRPRPHHWPRP,-0.315
21,RRIRNRPPRLPRPRPRPKTEPRP,-0.067
22,RRIRERPPRLPRPRPRPPTPPRP,0.192
23,RRIRVRPPRLPRPRPRPQKTPRP,0.0603
24,RRIRVRPPRLPRPRPRPPGVPRP,0.216
25,RRIRNRPPRLPRPRPRPLGYPRP,-0.165

row,Sequence,shrunken log2 fold change
1,RRIRFRPPRLPRPRPRPDLNPRP,-0.321
2,RRIRCRPPRLPRPRPRPAHTPRP,-0.0293
3,RRIRDRPPRLPRPRPRPWMIPRP,-0.124
4,RRIRERPPRLPRPRPRPEWYPRP,0.0172
5,RRIRNRPPRLPRPRPRPKGPPRP,0.0947
6,RRIRTRPPRLPRPRPRPDMFPRP,-0.0274
7,RRIRARPPRLPRPRPRPPVIPRP,0.0687
8,RRIRSRPPRLPRPRPRPIPKPRP,0.125
9,RRIRLRPPRLPRPRPRPFHAPRP,-0.219
10,RRIRPRPPRLPRPRPRPLLDPRP,0.0537
11,RRIRGRPPRLPRPRPRPQEFPRP,0.27
12,RRIRRRPPRLPRPRPRPTTAPRP,0.541
13,RRIRFRPPRLPRPRPRPIPRPRP,0.365
14,RRIRKRPPRLPRPRPRPPWPPRP,0.827
15,RRIRHRPPRLPRPRPRPFPTPRP,-0.0427
16,RRIRVRPPRLPRPRPRPSGWPRP,0.16
17,RRIRCRPPRLPRPRPRPMHGPRP,0.0358
18,RRIRLRPPRLPRPRPRPHMPPRP,-0.222
19,RRIRLRPPRLPRPRPRPVVMPRP,-0.282
20,RRIRWRPPRLPRPRPRPHKKPRP,0.028
21,RRIRARPPRLPRPRPRPHGVPRP,0.0905
22,RRIRARPPRLPRPRPRPMCRPRP,0.0586
23,RRIRIRPPRLPRPRPRPTPKPRP,-0.0169
24,RRIRNRPPRLPRPRPRPYGAPRP,-0.397
25,RRIRKRPPRLPRPRPRPFIPPRP,-0.543

row,Sequence,shrunken log2 fold change
1,RRIRVRPPRLPRPRPRPTWEPRP,0.00966
2,RRIRFRPPRLPRPRPRPHQVPRP,-0.088
3,RRIRGRPPRLPRPRPRPQVIPRP,-0.0421
4,RRIRKRPPRLPRPRPRPSVQPRP,0.0869
5,RRIRDRPPRLPRPRPRPELHPRP,0.319
6,RRIRPRPPRLPRPRPRPDFCPRP,-0.0633
7,RRIRQRPPRLPRPRPRPDCSPRP,0.0489
8,RRIRERPPRLPRPRPRPPLQPRP,-0.176
9,RRIRVRPPRLPRPRPRPPSIPRP,0.231
10,RRIRWRPPRLPRPRPRPYTKPRP,0.000534
11,RRIRIRPPRLPRPRPRPGFYPRP,0.054
12,RRIRSRPPRLPRPRPRPNKEPRP,0.0328
13,RRIRDRPPRLPRPRPRPRGHPRP,0.321
14,RRIRPRPPRLPRPRPRPYHIPRP,-0.672
15,RRIRYRPPRLPRPRPRPQGGPRP,0.0299
16,RRIRQRPPRLPRPRPRPNANPRP,0.00568
17,RRIRLRPPRLPRPRPRPGMSPRP,0.0159
18,RRIRLRPPRLPRPRPRPGESPRP,0.0313
19,RRIRDRPPRLPRPRPRPNCNPRP,1.33
20,RRIRHRPPRLPRPRPRPRALPRP,0.152
21,RRIRTRPPRLPRPRPRPKCWPRP,1.72
22,RRIRPRPPRLPRPRPRPQAMPRP,0.132
23,RRIRSRPPRLPRPRPRPNRRPRP,-0.0429
24,RRIRFRPPRLPRPRPRPTGWPRP,0.456
25,RRIRLRPPRLPRPRPRPFAEPRP,0.102

row,Sequence,shrunken log2 fold change
1,RRIRTRPPRLPRPRPRPFNHPRP,0.00676
2,RRIRYRPPRLPRPRPRPCNRPRP,-0.182
3,RRIRARPPRLPRPRPRPWFLPRP,-0.399
4,RRIRMRPPRLPRPRPRPLQGPRP,0.126
5,RRIRERPPRLPRPRPRPECQPRP,-0.0134
6,RRIRKRPPRLPRPRPRPPRDPRP,1.01
7,RRIRSRPPRLPRPRPRPCLTPRP,-0.293
8,RRIRRRPPRLPRPRPRPQLRPRP,0.213
9,RRIRHRPPRLPRPRPRPKYPPRP,0.0718
10,RRIRTRPPRLPRPRPRPVMWPRP,-0.11
11,RRIRGRPPRLPRPRPRPNAGPRP,0.552
12,RRIRDRPPRLPRPRPRPNCHPRP,-0.23
13,RRIRARPPRLPRPRPRPPQIPRP,0.599
14,RRIRTRPPRLPRPRPRPCREPRP,0.0664
15,RRIRMRPPRLPRPRPRPRCCPRP,0.373
16,RRIRSRPPRLPRPRPRPSTCPRP,0.0296
17,RRIRFRPPRLPRPRPRPDAWPRP,0.0823
18,RRIRERPPRLPRPRPRPMQSPRP,0.0874
19,RRIRGRPPRLPRPRPRPFILPRP,-0.196
20,RRIRERPPRLPRPRPRPGAGPRP,0.395
21,RRIRYRPPRLPRPRPRPALPPRP,-0.0414
22,RRIRIRPPRLPRPRPRPFMFPRP,-0.745
23,RRIRQRPPRLPRPRPRPINRPRP,-0.341
24,RRIRNRPPRLPRPRPRPGQVPRP,0.0381
25,RRIRTRPPRLPRPRPRPPQKPRP,0.0412

row,Sequence,shrunken log2 fold change
1,RRIRTRPPRLPRPRPRPIDYPRP,-0.231
2,RRIRSRPPRLPRPRPRPRTMPRP,0.108
3,RRIRSRPPRLPRPRPRPQVHPRP,-0.012
4,RRIRRRPPRLPRPRPRPIHGPRP,-0.302
5,RRIRKRPPRLPRPRPRPDDYPRP,0.276
6,RRIRWRPPRLPRPRPRPAELPRP,-0.0722
7,RRIRGRPPRLPRPRPRPLTQPRP,0.594
8,RRIRDRPPRLPRPRPRPGMEPRP,0.784
9,RRIRYRPPRLPRPRPRPYLRPRP,-0.00962
10,RRIRQRPPRLPRPRPRPCPPPRP,0.00708
11,RRIRRRPPRLPRPRPRPHHDPRP,-0.298
12,RRIRQRPPRLPRPRPRPSACPRP,0.42
13,RRIRVRPPRLPRPRPRPTRKPRP,0.575
14,RRIRSRPPRLPRPRPRPFSTPRP,-0.372
15,RRIRTRPPRLPRPRPRPANRPRP,-0.0396
16,RRIRSRPPRLPRPRPRPKIPPRP,1.16
17,RRIRVRPPRLPRPRPRPYQEPRP,0.00202
18,RRIRFRPPRLPRPRPRPHKHPRP,-0.579
19,RRIRNRPPRLPRPRPRPALAPRP,0.1
20,RRIRFRPPRLPRPRPRPHPQPRP,0.246
21,RRIRDRPPRLPRPRPRPGWRPRP,0.832
22,RRIRPRPPRLPRPRPRPDVIPRP,-0.0251
23,RRIRYRPPRLPRPRPRPQYYPRP,-1.52
24,RRIRDRPPRLPRPRPRPYFMPRP,-0.735
25,RRIRDRPPRLPRPRPRPTERPRP,0.463
